Results on one molecule are retold here after patent US20230045151A1, “COMPOSITIONS AND METHODS” (MONASH UNIVERSITY, priority 2020, published 2023).

This assay has as its system CCL20. The assay can be described thus: In vitro stimulation of lung cells enriched for airway epithelial cells, chemokine release. Type of assay: cell-based, mouse. Particulars: LPS 10 μg/ml, 24 hours; EGF 100 ng/ml, amphiregulin 500 ng/ml or gefitinib 0.16 μM; lower efficacy than PCS. The protocol: Mice were euthanized by CO2 inhalation, instilled with a 1.5 ml dispase II (Sigma-Aldrich) intratracheally, followed by intratracheal injection of 0.5 ml 1% low melting point agarose (Sigma-Aldrich). Lungs were then covered with ice for 3 min, removed and placed in a 15 ml falcon tube with 2 ml of dispase II, and incubated for 45 min with gentle agitation. This was followed by mechanical disruption of the lung lobes using forceps in DMEM supplemented with DNAse I (Sigma-Aldrich, 1U/ml), filtration through 70- and 40-μM cell strainers (Falcon®, Corning) and lysis of erythrocytes using red blood cell lysing buffer (BD Biosciences). Lung cells were plated in a flat-bottom 24-well or 96-well plates (Costar) coated with fibronectin (Sigma-Aldrich, 10 μg/ml) at the density of 1 mln or 0.2 mln cells/well, respectively.
5% CO2, after which the supernatant was collected and stored at −20° C. until further use.

B1: amphiregulin: low affinity EGFR ligand (protein, UniProt P15514 101-187, looked up)
Amphiregulin: SVRVEQVVKPPQNKTESENTSDKPKRKKKGGKNGKNRRNRKKKNPCNAEFQNFCIHGECKYIEHLEAVTCKCQQEYFGERCGEKSMK
modifications: Amphiregulin
Turning to B1, the “CCL20 production by lung cells stimulated with LPS” value is “selective reduction”.
